The values that follow come from patent US20210130470A1 (MacroGenics, published 2021).

Changes are numbered by the printed parent chain.

For assay [1], the target named is T1, hPD-1-His (human, UniProt Q15116 25-170, limits assumed).
T1 construct: also called His-tagged soluble human PD-1; shPD-1
As to the kind of experiment: competition ELISA: plate coated with shPD-1 and irrelevant antigen 1:1 (2 ug/ml each); blocked ligand biotin-labeled PD-L1 6 ug/ml, streptavidin-HRP, RLU. As to the method:
(§1) A series of ELISA assays were conducted to evaluate the ability of bispecific molecules of the invention to block ligand binding to PD-1 and […], alone and in combination. […] Plates were coated with a 1:1 mix of His-tagged soluble human PD-1 (shPD-1) and a His-tagged irrelevant antigen (irrAg) (2 μg/ml each), or a 1:1 mix of shPD-1 and a His-tagged soluble human CTLA-4 (shCTLA-4) (2 μg/ml each).

Assay [2] has as its target T2, His-tagged soluble human CTLA-4 (human, UniProt P16410 36-161).
T2 construct: also called shCTLA-4
T2 sequence: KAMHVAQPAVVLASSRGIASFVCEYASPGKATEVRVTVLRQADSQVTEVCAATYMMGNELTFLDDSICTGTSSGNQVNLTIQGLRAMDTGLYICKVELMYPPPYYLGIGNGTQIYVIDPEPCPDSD
The assay can be described thus: competition ELISA: plate coated with shCTLA-4 0.8 ug/ml and shPD-1 3.2 ug/ml (1:4); blocked ligand biotin-labeled B7-1 0.2 ug/ml, streptavidin-HRP, RLU. The method, then:
(§2) Plates were coated with a 1:1 mix of shCTLA-4 and irrAg (2 μg/ml each), a 1:1 mix of shCTLA-4 shPD-1 (2 μg/ml each), or a 1:4 mix of shCTLA-4 (0.8 μg/ml) and shPD-1 (3.2 μg/ml).
(ELISA stands for enzyme-linked immunosorbent assay.)

For assay [3], the target named is T3, His-tagged soluble cynomolgus monkey CTLA-4 (cynomolgus monkey).
T3 construct: extracellular domain; also called Cyno CTLA-4
The assay can be described thus: BIACORE, His-tagged soluble cyno CTLA-4 captured on anti-PentaHis, binder passed over at 12.5-200 nM; affinity by 1:1 Langmuir binding model. As to the method:
(§3) Briefly, His-tagged soluble CTLA-4 (an extracellular portion of human or cynomolgus monkey CTLA-4 fused to a histidine-containing peptide) was captured on immobilized anti-PentaHis and then different concentrations (12.5-200 nM) of the CTLA-4 binding molecules were passed over the immobilized CTLA-4 proteins. The kinetics of binding were determined via BIACORE® analysis (affinity by 1:1 Langmuir binding model (simultaneous ka/kd); or avidity by separate ka/kd 1:1 fit).

Assay [4] addresses T4, PD-1 expressed on the cell surface (human, UniProt Q15116 21-288).
T4 construct: also called NSO cells expressing PD-1; NSO-PD-1 cells
As to the kind of experiment: cell-based competition (FACS): blocked ligand PD-L1-PE binding to NSO-PD-1 cells, MFI.

Assay [5] has as its target T1, hPD-1-His. The assay can be described thus: competition ELISA: plate coated with shPD-1 and shCTLA-4 1:1 (2 ug/ml each); blocked ligand biotin-labeled PD-L1 6 ug/ml, streptavidin-HRP, RLU. The method, then:
as §1

The target in assay [6] is T2, His-tagged soluble human CTLA-4. As to the kind of experiment: competition ELISA: plate coated with shCTLA-4 and shPD-1 1:1 (2 ug/ml each); blocked ligand biotin-labeled B7-1 0.2 ug/ml, streptavidin-HRP, RLU. As to the method: as §2
The target in assay [7] is T4, PD-1 expressed on the cell surface. As to the kind of experiment: cell-based competition (FACS): blocked ligand PD-L2-PE binding to NSO-PD-1 cells, MFI.
The target in assay [8] is T1, hPD-1-His. As to the kind of experiment: ELISA: shPD-1-his coated, detection goat anti-human Fc-gamma-HRP 1:10000, chemiluminescence RLU. The text has this:
(§4) FIGS. 8A-8D show the results of ELISA studies measuring the binding of serially diluted binding molecules to human CTLA-4 and human PD-1. […] Goat anti-human-Fc-HRP (1:10,000) was employed as the secondary detection molecule to detect binding. FIGS. 8C-8D show the results of a study on the effect of altering orientations and binding domains on binding. […] Goat anti-human-Fcγ-HRP was employed as the secondary detection molecule to detect binding using PICO chemiluminescent substrate.

The target in a further assay is T5, soluble hCTLA-4-Avi-His (human, UniProt P16410 36-161).
T5 construct: also called soluble human CTLA-4-Avi-His
T5 sequence: T2 sequence
The assay can be described thus: ELISA: shCTLA-4-Avi-His coated at 1 ug/mL, detection goat anti-human Fc-gamma-HRP 1:10000, chemiluminescence RLU.
From the text: as §4

Assay [9] deals with T6, cynomolgus monkey CTLA-4 expressed on CHO cells (cynomolgus monkey, UniProt G7PL88 36-223).
T6 construct: also called cynoCTLA-4
T6 sequence: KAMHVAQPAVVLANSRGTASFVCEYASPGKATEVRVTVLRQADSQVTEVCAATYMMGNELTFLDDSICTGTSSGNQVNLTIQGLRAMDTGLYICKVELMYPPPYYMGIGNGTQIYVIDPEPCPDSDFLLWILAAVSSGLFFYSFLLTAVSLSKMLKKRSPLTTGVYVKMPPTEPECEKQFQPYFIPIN
The assay can be described thus: flow cytometry on CHO cells expressing cynomolgus monkey CTLA-4, anti-human Fc secondary antibody, GMFI. (In general: In flow cytometry, cells or beads pass a laser one at a time.)

For assay [10], the target named is T7, human CTLA-4 expressed on the cell surface (human, UniProt P16410 36-223).
T7 construct: also called huCTLA-4; CHO cells expressing human CTLA-4
T7 sequence: T6 sequence with N14S, T18I, M106L
The assay can be described thus: flow cytometry on CHO cells expressing human CTLA-4, anti-human Fc secondary antibody, GMFI.

Assay [11] addresses T7, human CTLA-4 expressed on the cell …. As to the kind of experiment: cell-based competition: blocked ligand His-B7-1 10 ng/ml binding to CTLA-4 Jurkat cells, detected with anti-His antibody, GMFI-APC.
Assay [12] shares this target. As to the kind of experiment: cell-based competition: blocked ligand His-B7-2 116.8 ng/ml binding to CTLA-4 Jurkat cells, detected with anti-His antibody, GMFI-APC.
In assay [13] the target is T3, His-tagged soluble cynomolgus monkey …. As to the kind of experiment: BIACORE, His-tagged soluble cyno CTLA-4 captured on anti-PentaHis, binder passed over at 12.5-200 nM; avidity by separate ka/kd 1:1 fit. As to the method: as §3
On the technique in general: In SPR one partner is held on a chip, and binding of the other changes the refractive index at the surface.

In assay [14] the target is T4, PD-1 expressed on the cell surface. As to the kind of experiment: flow cytometry on NSO cells expressing PD-1 but not CTLA-4, MFI (APC).

B1: TRIDENT A (bispecific antibody, human IgG4 S228P, kappa)
chain 1: EIVLTQSPATLSLSPGERATLSCRASESVDNYGMSFMNWFQQKPGQPPKLLIHAASNQGSGVPSRFSGSGSGTDFTLTISSLEPEDFAVYFCQQSKEVPYTFGGGTKVEIKGGGSGGGGQVQLVQSGAEVKKPGASVKVSCKASGYSFTSYWMNWVRQAPGQGLEWIGVIHPSDSETWLDQKFKDRVTITVDKSTSTAYMELSSLRSEDTAVYYCAREHYGTSPFAYWGQGTLVTVSSGGCGGGEVAACEKEVAALEKEVAALEKEVAALEKESKYGPPCPPCPAPEFLGGPSVFLFPPKPKDTLYITREPEVTCVVVDVSQEDPEVQFNWYVDGVEVHNAKTKPREEQFNSTYRVVSVLTVLHQDWLNGKEYKCKVSNKGLPSSIEKTISKAKGQPREPQVYTLPPSQEEMTKNQVSLWCLVKGFYPSDIAVEWESNGQPENNYKTTPPVLDSDGSFFLYSRLTVDKSRWQEGNVFSCSVMHEALHNHYTQKSLSLSLG
chain 2: EIVLTQSPATLSLSPGERATLSCRASESVDNYGMSFMNWFQQKPGQPPKLLIHAASNQGSGVPSRFSGSGSGTDFTLTISSLEPEDFAVYFCQQSKEVPYTFGGGTKVEIKGGGSGGGGQVQLVQSGAEVKKPGASVKVSCKASGYSFTSYWMNWVRQAPGQGLEWIGVIHPSDSETWLDQKFKDRVTITVDKSTSTAYMELSSLRSEDTAVYYCAREHYGTSPFAYWGQGTLVTVSSGGCGGGKVAACKEKVAALKEKVAALKEKVAALKE
chain 3: QVQLVESGGGVVQPGRSLRLSCAASGFTFSSYTMHWVRQAPGKGLEWVTFISYDGSNKHYADSVKGRFTVSRDNSKNTLYLQMNSLRAEDTAIYYCARTGWLGPFDYWGQGTLVTVSSASTKGPSVFPLAPCSRSTSESTAALGCLVKDYFPEPVTVSWNSGALTSGVHTFPAVLQSSGLYSLSSVVTVPSSSLGTKTYTCNVDHKPSNTKVDKRVESKYGPPCPPCPAPEFLGGPSVFLFPPKPKDTLYITREPEVTCVVVDVSQEDPEVQFNWYVDGVEVHNAKTKPREEQFNSTYRVVSVLTVLHQDWLNGKEYKCKVSNKGLPSSIEKTISKAKGQPREPQVYTLPPSQEEMTKNQVSLSCAVKGFYPSDIAVEWESNGQPENNYKTTPPVLDSDGSFFLVSRLTVDKSRWQEGNVFSCSVMHEALHNRYTQKSLSLSLG
chain 4: not shown
notes: Four-chain trivalent molecule: two PD-1 sites (PD-1 mAb 6-ISQ, diabody type), one CTLA-4 site (CTLA-4 mAb 3, Fab type), knob/hole IgG4 (YTE)
B1: the “IC50 (read off the curve)” value with hPD-1-His [1] was approximately 1 nM; in assay [2], approximately 3 nM; in assay [4], approximately 0.8 nM; with hPD-1-His [5], approximately 1 nM; in [6] it was approximately 10 nM; in [7], approximately 1 nM. In [3], this molecule came in with a Kd of 260 nM.

B2: DART B (bispecific antibody)
chain 1: not shown
chain 2: EIVLTQSPATLSLSPGERATLSCRASESVDNYGMSFMNWFQQKPGQPPKLLIHAASNQGSGVPSRFSGSGSGTDFTLTISSLEPEDFAVYFCQQSKEVPYTFGGGTKVEIKGGGSGGGGQVQLVESGGGVVQPGRSLRLSCAASGFTFSSYTMHWVRQAPGKGLEWVTFISYDGNNKYYADSVKGRFTISRDNSKNTLYLQMNSLRAEDTAIYYCARTGWLGPFDYWGQGTLVTVSSGGCGGGKVAACKEKVAALKEKVAALKEKVAALKE
notes: Four-chain Fc diabody, PD-1 mAb 6-ISQ x CTLA-4 mAb 1, IgG4 (YTE), E/K-coils; two sites for PD-1 and two for CTLA-4
The EC50 (read off the curve) is the concentration giving half of the maximal effect. Turning to B2, in the assay with hPD-1-His [8], the “EC50 (read off the curve)” value is approximately 0.5 nM.

B3: DART C (bispecific antibody)
chain 1: not shown
chain 2: B2 chain 2 with N175S, Y178H, I189V
notes: Four-chain Fc diabody, CTLA-4 mAb 3 x PD-1 mAb 6-ISQ, IgG4 Fc, E/K-coils
On to B3, for which the “EC50 (read off the curve)” value was approximately 0.5 nM in the assay with hPD-1-His [8] and approximately 0.4 nM in the assay with soluble hCTLA-4-Avi-His.

B4: DART D (bispecific antibody, human IgG4 S228P)
chain 1: EIVLTQSPATLSLSPGERATLSCRASESVDNYGMSFMNWFQQKPGQPPKLLIHAASNQGSGVPSRFSGSGSGTDFTLTISSLEPEDFAVYFCQQSKEVPYTFGGGTKVEIKGGGSGGGGQVQLVESGGGVVQPGRSLRLSCAASGFTFSSYTMHWVRQAPGKGLEWVTFISYDGSNKHYADSVKGRFTVSRDNSKNTLYLQMNSLRAEDTAIYYCARTGWLGPFDYWGQGTLVTVSSGGCGGGEVAACEKEVAALEKEVAALEKEVAALEKESKYGPPCPPCPAPEFLGGPSVFLFPPKPKDTLYITREPEVTCVVVDVSQEDPEVQFNWYVDGVEVHNAKTKPREEQFNSTYRVVSVLTVLHQDWLNGKEYKCKVSNKGLPSSIEKTISKAKGQPREPQVYTLPPSQEEMTKNQVSLTCLVKGFYPSDIAVEWESNGQPENNYKTTPPVLDSDGSFFLYSRLTVDKSRWQEGNVFSCSVMHEALHNHYTQKSLSLSLG
chain 2: not shown
notes: Four-chain Fc diabody, PD-1 mAb 6-ISQ x CTLA-4 mAb 3, IgG4 (YTE), E/K-coils
As to B4, the “IC50 (read off the curve)” value with hPD-1-His [1] is approximately 0.8 nM; in assay [11], approximately 4 nM; in [4], approximately 0.8 nM; in assay [12], approximately 5 nM; in [7] it was approximately 1 nM. In addition, the “EC50 (read off the curve)” value was approximately 2 nM in [9], approximately 2 nM in [10], approximately 0.5 nM with hPD-1-His [8] and approximately 1 nM in assay [14]. Also, the Kd in [13] was 4.9 nM.

B5: CTLA-4 mAb 1 (antibody, IgG1, V domains shown)
VH: QVQLVESGGGVVQPGRSLRLSCAASGFTFSSYTMHWVRQAPGKGLEWVTFISYDGNNKYYADSVKGRFTISRDNSKNTLYLQMNSLRAEDTAIYYCARTGWLGPFDYWGQGTLVTVSS
VL: not shown
notes: IgG1, natural antibody structure; also called ipilimumab replica
On to B5, for which the Kd in [13] came out at 1.3 nM.
